Data: patent publication US20110171220A1 (ISIS INNOVATION, published 2011)

Tests used:
[1] = target: T1, human PD-1 extracellular region / murine CD28 chimera, mutant L16R, on HEK-293T cells (human; mouse, UniProt Q15116 25-170; P31041 151-218, L16R); assay: flow cytometry on transfected HEK-293T cells
T1 construct: extracellular domain;domain: transmembrane and intracellular regions; Single-residue 'drastic' mutant of m4
Experimental: (§1) Constructs encoding the human extracellular region of PD-1 with the transmembrane and intracellular regions of murine CD28 were cloned into the bi-cistronic mammalian expression vector pGFP2-n2 from BioSignal Packard Ltd, which also encodes GFP. Mutant constructs varying by one amino acid were prepared using the “drastic” mutagenesis approach (Davis et al. Proc Natl Acad Sci USA. 95, 5490-4 (1998)). Plasmids (2 μg/well) were transfected into HEK-293T cells in 6 well plates using Genejuice transfection reagent (Novagen; 6 μl/well). Mock and no-transfection controls were included with each experiment. Cells were harvested at 18-24 hours and stained with anti-PD1 antibodies or isotype controls at 10 μg/ml in PBS-azide for 1 h at 4° C. Cells were washed with PBS-Azide, pelleted at 1500 rpm/5 min and primary antibodies were labelled with Alexa647-conjugated donkey anti-mouse IgG (5 μg/ml) in PBS-Azide for 30 min at 4° C. Cells were washed as above and resuspended in 200 μl PBS-Azide before being analysed at the flow cytometer. Propidium iodide (5 μg/ml) was added immediately prior to analysis to identify dead cells. GFP-positive (transfected) viable cells were gated and analysed for binding of anti-PD1 antibodies. Mutants were defined as ‘knock-out’ (reducing the percentage of cells bound by the anti-PD1 antibody) or ‘knock-down’ (reducing the intensity of antibody staining relative to other PD-1 antibodies).
(§2) Following transfection, cells analysed at the flow cytometer were 85-90% viable by propidium iodide exclusion. Transfection efficiencies ranged from 15-50% (GFP⁺). Isotype controls were negative on all transfectants. […] V18R partially eliminates Clone 19 binding.

[2] = target: T2, human PD-1 extracellular region / murine CD28 chimera, mutant V18R, on HEK-293T cells (human; mouse, UniProt Q15116 25-170; P31041 151-218, V18R); assay: flow cytometry on transfected HEK-293T cells
T2 construct: extracellular domain;domain: transmembrane and intracellular regions; Single-residue 'drastic' mutant of m4
T2 sequence (Q15116 other isoform, or with tags, fused parts or gaps V18R | V18R V18R): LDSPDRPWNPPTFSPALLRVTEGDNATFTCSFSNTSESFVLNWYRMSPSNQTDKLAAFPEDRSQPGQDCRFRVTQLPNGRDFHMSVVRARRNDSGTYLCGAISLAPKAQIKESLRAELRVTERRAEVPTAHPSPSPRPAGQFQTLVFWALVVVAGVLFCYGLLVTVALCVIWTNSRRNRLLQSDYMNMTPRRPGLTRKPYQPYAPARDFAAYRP
Experimental: as §1, §2

[3] = target: T3, human PD-1 extracellular region / murine CD28 chimera, mutant R118D, on HEK-293T cells (human; mouse, UniProt Q15116 25-170; P31041 151-218, R118D); assay: flow cytometry on transfected HEK-293T cells
T3 construct: extracellular domain;domain: transmembrane and intracellular regions; Single-residue 'drastic' mutant of m4
T3 sequence (Q15116 other isoform, or with tags, fused parts or gaps R118D | R118D R118D): as the sequence (Q15116 other isoform, or with tags, fused parts or gaps V18R | V18R V18R) above, with R19V, R119D counted along it
Experimental: as §1, §2

[4] = target: T4, Monomeric soluble human PD-1 (human, UniProt Q15116 25-170, limits assumed); assay: SPR, antibody captured by rabbit anti-mouse Fc, soluble PD-1 injected
T4 construct: also called soluble PD-1
T4 sequence (Q15116 25-170 limits assumed): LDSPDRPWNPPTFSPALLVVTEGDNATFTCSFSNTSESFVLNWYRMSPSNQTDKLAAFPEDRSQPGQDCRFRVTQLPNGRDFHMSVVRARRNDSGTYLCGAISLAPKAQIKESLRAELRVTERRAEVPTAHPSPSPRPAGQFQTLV
Experimental: FIG. 12: Dissociation rates for Clone 2, 10 and 19 antibodies determined by surface plasmon resonance-based analysis. The three antibodies and a negative control (OX-7) were bound indirectly to the biosensor surface, i.e. via a covalently coupled rabbit anti-mouse Fc antibody. Monomeric soluble human PD-1 was then injected to saturating levels over the immobilized antibodies in the buffer 10 mM Hepes, 150 mM NaCl pH 7.4. Following injection of the soluble PD-1, the buffer only was injected, allowing dissociation of the bound soluble PD-1 from each of the antibodies simultaneously. Dissociation rates were fitted using Origin v.5.0 software (MicroCal Software Inc, Northampton, Mass.) after subtraction of the dissociation rate for OX-7 dissociating from the anti-mouse Fc antibody.

T1 sequence (Q15116 other isoform, or with tags, fused parts or gaps L16R | L16R L16R): as the sequence (Q15116 other isoform, or with tags, fused parts or gaps V18R | V18R V18R) above, with L17R, R19V counted along it

binding result [1]	binding result [2]	binding result [3]	binding result [4]	Binder
binds	binds	binds		Clone 10 anti-PD-1 antibody (antibody, IgG1, V domains shown, the printed VH ends at ...GTTVTV; also called hybridoma 08090902) VH: DVQLQESGPGLVKPSQSLSLTCTVTGYSITSDYAWNWIRQFPGNKLEWMGYINYSGSTSYNPSLKSRISITRDTSKNQFFLQLNSVTTEDTATYYCARWIGSSAWYFDVWGAGTTVTV VL: DVLMTQTPLSLPVSLGDQASISCRSGQNIVHSNGNTYLEWYLQKPGQSPKLLIYKVSNRFFGVPDRISGSGSGTDFTLKISRVEAEDLGVYFCFQGSHVPFTFGSGTKLEIK
no binding (tested: 10 µg/ml)	binds	no binding (tested: 10 µg/ml)		Clone 19 anti-PD-1 antibody (antibody, IgG1, V domains shown, the printed VH ends at ...GTLVTV; Constant regions are named only in an embodiment (GenBank D78344, V00807); also called monoclonal antibody produced by clone 19; hybridoma 08090901) VH: QVQLQQSGAELVKPGASVKMSCKAFGYTFTTYPIEWMKQNHGKSLEWIGNFHPYNDDTKYNEKFKGKAKLTVEKSSTTVYLELSRLTSDDSAVYYCARENYGSHGGFVYWGQGTLVTV VL: ENVLTQSPAIMSASPGEKVTMTCRASSSVISSYLHWYQQKSGASPKLWIYSTSNLASGVPDRFSGSGSGTSYSLTISSVEAEDAATYYCQQYNGYPLTFGAGTKLEIK
			binds	Clone 2 anti-PD-1 antibody (antibody, V domains shown, The printed VH ends at ...GTSVT; also called hybridoma 08090903) VH: QVQLQQPGAELVKPGASVKLSCKASGYTFTTYYLYWVRQRPGQGLEWIGGINPSNGGTNFNEKFKSKATLTVDKSSSTAYMQLNSLTSEDSAVYYCTRRDYRYDRGFDYWGQGTSVTV VL: DIVLTQSPASLAVSLGQRATISCRASKSVSTSGFNYIHWYQQKPGQPPKLLIYLASNLESGVPARFSGSGSGTDFTLNIHPVEDEDAATYYCQHSRELPLTFGAGTKLEIK
